3 molecules from PMC10624894 (Nature Communications, 2023) can be followed below.

By Kd is commonly meant the constant that tells how readily two partners part at equilibrium. Low values mean higher affinity, high ones lower affinity.

This assay deals with EA1ΔD6 (Bacillus anthracis (strain 7702), UniProt P94217, biotin (EZ-Link NHS-PEG4-Biotin) in the BLI experiment only). Description: BLI; […] (3 µg/ml) […]; room temperature; […]. The settings on record: both partners purified.

B1: Nb^643 (VHH)
VHH: QVQLVESGGGLVQPGGSLRLSCAASGIAFSRNAVGWYRQAPGKQRELVARSNTVGATNYADSVKGRFTISRDNDKSTVYLQMNSLKPEDTAVYYCNIYLYGDRTGSTLNSWGQGTQVTVSS
notes: also called nanobody 643; source: E. coli WK6, periplasmic expression, purified (SEC as the final step)
For the molecule B1, the affinity, expressed as Kd, was 1.9 nM.

B2: Nb^632 (VHH)
VHH: QVQLVESGGGLVQAGGSLRLSCVASGGTFSNYGMGWFRQAPGKEREFVAAVRWSGDSTYYSDSVKGRFTISRDNAKNTVYLQMNGLKPEDTAVYYCARRLNWRFISNWDKESEYAYWGQGTQVTVSS
notes: also called nanobody 632; source: E. coli WK6, periplasmic expression, purified (SEC as the final step)
For B2, the affinity, expressed as Kd, was 2.2 nM.

B3: Nb^633 (VHH)
VHH: QVQLVESGGGLVQAGASLRLSCAASGRTFSSYAMGWFRQAPGKEREFVAAISPLGQTTYYTDSVKGRFTISRDNAKNTLYLQMNSLKPEDTAVYYCAQGSLSEVRLGKSTYWGQGTQVTVSS
notes: also called nanobody 633; source: E. coli WK6, periplasmic expression, purified (SEC as the final step)
In turn, B3 returned a dissociation constant (Kd) of 13 nM.
